Abundance fitness data for 47 variants are collected here from the Human Domainome abundance scans (Beltran et al. 2025).

To fix the notation:
B1: Zinc finger homeobox protein 4, residues 2086 to 2141; numbered along this chain, Q86UP3 (parent)
chain: RPRTRITDDQLKILRAYFDINNSPSEEQIQEMAEKSGLSQKVIKHWFRNTLFKERQ

± gives the uncertainty stated by the source.

The variants in this series derive from B1. As to the kind of experiment: abundance fitness (aPCA) (normalised: wild type 0, dead -1); higher = more abundant; growth selection in yeast, the domain comes from the species named. The settings on record: Homo sapiens.
In the case of RPRTRITNDQLKILRAYFDINNSPSEEQIQEMAEKSGLSQKVIKHWFRNTLFKERQ [D8N], the abundance fitness is -0.28 ± 0.11.

Consider RPRTRITHDQLKILRAYFDINNSPSEEQIQEMAEKSGLSQKVIKHWFRNTLFKERQ [D8H], for which the abundance fitness was -0.019 ± 0.16. With RPRTRITADQLKILRAYFDINNSPSEEQIQEMAEKSGLSQKVIKHWFRNTLFKERQ [D8A], the abundance fitness was -0.051 ± 0.066. For the variant RPRTRITTDQLKILRAYFDINNSPSEEQIQEMAEKSGLSQKVIKHWFRNTLFKERQ [D8T], the abundance fitness was -0.172 ± 0.1. As to RPRTRITYDQLKILRAYFDINNSPSEEQIQEMAEKSGLSQKVIKHWFRNTLFKERQ [D8Y], the abundance fitness was -0.238 ± 0.14. As to RPRTRITCDQLKILRAYFDINNSPSEEQIQEMAEKSGLSQKVIKHWFRNTLFKERQ [D8C], the abundance fitness was determined as 0.046 ± 0.11. With RPRTRITVDQLKILRAYFDINNSPSEEQIQEMAEKSGLSQKVIKHWFRNTLFKERQ [D8V], the abundance fitness is -0.015 ± 0.069. Regarding RPRTRITRDQLKILRAYFDINNSPSEEQIQEMAEKSGLSQKVIKHWFRNTLFKERQ [D8R], the abundance fitness was -0.183 ± 0.067. For RPRTRITLDQLKILRAYFDINNSPSEEQIQEMAEKSGLSQKVIKHWFRNTLFKERQ [D8L], the abundance fitness was -0.127 ± 0.079. Regarding RPRTRITIDQLKILRAYFDINNSPSEEQIQEMAEKSGLSQKVIKHWFRNTLFKERQ [D8I], the abundance fitness turned out to be 0.036 ± 0.14. As for RPRTRITGDQLKILRAYFDINNSPSEEQIQEMAEKSGLSQKVIKHWFRNTLFKERQ [D8G], the figure is -0.004 ± 0.067; as for RPRTRITMDQLKILRAYFDINNSPSEEQIQEMAEKSGLSQKVIKHWFRNTLFKERQ [D8M], 0.113 ± 0.088. As for RPRTRITWDQLKILRAYFDINNSPSEEQIQEMAEKSGLSQKVIKHWFRNTLFKERQ [D8W], the figure is -0.092 ± 0.081; as for RPRTRITKDQLKILRAYFDINNSPSEEQIQEMAEKSGLSQKVIKHWFRNTLFKERQ [D8K], 0.012 ± 0.098; as for RPRTRITEDQLKILRAYFDINNSPSEEQIQEMAEKSGLSQKVIKHWFRNTLFKERQ [D8E], 0.145 ± 0.083. Take RPRTRITPDQLKILRAYFDINNSPSEEQIQEMAEKSGLSQKVIKHWFRNTLFKERQ [D8P]: the abundance fitness stood at 0.034 ± 0.11. For the variant RPRTRITFDQLKILRAYFDINNSPSEEQIQEMAEKSGLSQKVIKHWFRNTLFKERQ [D8F], the abundance fitness is -0.056 ± 0.14. Under RPRTRITQDQLKILRAYFDINNSPSEEQIQEMAEKSGLSQKVIKHWFRNTLFKERQ [D8Q] stands 0.081 ± 0.097; under RPRTRITSDQLKILRAYFDINNSPSEEQIQEMAEKSGLSQKVIKHWFRNTLFKERQ [D8S], 0.023 ± 0.081; under RPRTRITDDWLKILRAYFDINNSPSEEQIQEMAEKSGLSQKVIKHWFRNTLFKERQ [Q10W], -0.817 ± 0.1. For the variant RPRTRITDDNLKILRAYFDINNSPSEEQIQEMAEKSGLSQKVIKHWFRNTLFKERQ [Q10N], the abundance fitness was -0.099 ± 0.19.

As for RPRTRITDDFLKILRAYFDINNSPSEEQIQEMAEKSGLSQKVIKHWFRNTLFKERQ [Q10F], the abundance fitness is -0.616 ± 0.19.

Take RPRTRITDDALKILRAYFDINNSPSEEQIQEMAEKSGLSQKVIKHWFRNTLFKERQ [Q10A]: the abundance fitness was -0.461 ± 0.076. On to RPRTRITDDYLKILRAYFDINNSPSEEQIQEMAEKSGLSQKVIKHWFRNTLFKERQ [Q10Y], for which the abundance fitness was -0.498 ± 0.13. Regarding RPRTRITDDSLKILRAYFDINNSPSEEQIQEMAEKSGLSQKVIKHWFRNTLFKERQ [Q10S], the abundance fitness is -0.172 ± 0.076. On to RPRTRITDDTLKILRAYFDINNSPSEEQIQEMAEKSGLSQKVIKHWFRNTLFKERQ [Q10T], for which the abundance fitness is -0.245 ± 0.092.

Consider RPRTRITDDGLKILRAYFDINNSPSEEQIQEMAEKSGLSQKVIKHWFRNTLFKERQ [Q10G], for which the abundance fitness was -0.514 ± 0.068. As for RPRTRITDDRLKILRAYFDINNSPSEEQIQEMAEKSGLSQKVIKHWFRNTLFKERQ [Q10R], the figure is -0.526 ± 0.078. For RPRTRITDDCLKILRAYFDINNSPSEEQIQEMAEKSGLSQKVIKHWFRNTLFKERQ [Q10C], the abundance fitness is -0.277 ± 0.11. In the case of RPRTRITDDPLKILRAYFDINNSPSEEQIQEMAEKSGLSQKVIKHWFRNTLFKERQ [Q10P], the abundance fitness was -0.819 ± 0.13.

RPRTRITDDELKILRAYFDINNSPSEEQIQEMAEKSGLSQKVIKHWFRNTLFKERQ [Q10E]: the abundance fitness was -0.383 ± 0.092. With RPRTRITDDDLKILRAYFDINNSPSEEQIQEMAEKSGLSQKVIKHWFRNTLFKERQ [Q10D], the abundance fitness was -0.125 ± 0.12. Consider RPRTRITDDMLKILRAYFDINNSPSEEQIQEMAEKSGLSQKVIKHWFRNTLFKERQ [Q10M], for which the abundance fitness is -0.323 ± 0.11. Take RPRTRITDDILKILRAYFDINNSPSEEQIQEMAEKSGLSQKVIKHWFRNTLFKERQ [Q10I]: the abundance fitness is -0.462 ± 0.12. Consider RPRTRITDDQLAILRAYFDINNSPSEEQIQEMAEKSGLSQKVIKHWFRNTLFKERQ [K12A], for which the abundance fitness was -0.137 ± 0.084. Regarding RPRTRITDDQLDILRAYFDINNSPSEEQIQEMAEKSGLSQKVIKHWFRNTLFKERQ [K12D], the abundance fitness is -0.212 ± 0.12. For RPRTRITDDQLCILRAYFDINNSPSEEQIQEMAEKSGLSQKVIKHWFRNTLFKERQ [K12C], the abundance fitness was -0.112 ± 0.099. As to RPRTRYTDDQLKILRAYFDINNSPSEEQIQEMAEKSGLSQKVIKHWFRNTLFKERQ [I6Y], the abundance fitness was -0.047 ± 0.08. Consider RPRTRITDSQLKILRAYFDINNSPSEEQIQEMAEKSGLSQKVIKHWFRNTLFKERQ [D9S], for which the abundance fitness came out at 0.084 ± 0.065. Turning to RPRTRITDAQLKILRAYFDINNSPSEEQIQEMAEKSGLSQKVIKHWFRNTLFKERQ [D9A], the abundance fitness was 0.059 ± 0.074. As to RPRTRITDIQLKILRAYFDINNSPSEEQIQEMAEKSGLSQKVIKHWFRNTLFKERQ [D9I], the abundance fitness was -0.026 ± 0.075. Regarding RPRTRITDTQLKILRAYFDINNSPSEEQIQEMAEKSGLSQKVIKHWFRNTLFKERQ [D9T], the abundance fitness is 0.165 ± 0.07.

For the variant RPRTRITDWQLKILRAYFDINNSPSEEQIQEMAEKSGLSQKVIKHWFRNTLFKERQ [D9W], the abundance fitness was -0.155 ± 0.11. Take RPRTRITDFQLKILRAYFDINNSPSEEQIQEMAEKSGLSQKVIKHWFRNTLFKERQ [D9F]: the abundance fitness amounted to 0.071 ± 0.076. In the case of RPRTRITDHQLKILRAYFDINNSPSEEQIQEMAEKSGLSQKVIKHWFRNTLFKERQ [D9H], the abundance fitness was 0.044 ± 0.074. On to RPRTRITDPQLKILRAYFDINNSPSEEQIQEMAEKSGLSQKVIKHWFRNTLFKERQ [D9P], for which the abundance fitness was -0.002 ± 0.07. For RPRTRITDNQLKILRAYFDINNSPSEEQIQEMAEKSGLSQKVIKHWFRNTLFKERQ [D9N], the abundance fitness is 0.047 ± 0.069.
